Target: the molecule itself
Test: SEC; tag-free purified protein on Superose 6 10/300 GL, 25 mM Tris-HCl pH 7.5, 150 mM NaCl; oligomer judged from the elution volume; data not shown

B1: Glutamine synthetase from Providencia vermicola (enzyme, UniProt A0AAX3RWL7 1-469, looked up)
chain: MSSEHVLSLIEEHKIKFIDLRFTDTKGKEQHITIPAHQVNEDFFEEGKMFDGSSIGGWKGINESDMVLMPDPSTAMLDPFFADPTLIIRCDILEPGTMQGYDRDPRSISQRAEDFLRSSGIADTVLFGPEPEFFIFDDIRFGNSMHSSYYHIDDIEAAWNTGTKYEGGNKGHRPGVKGGYFPVPPVDSSQDLRSAMCTTMEEMGLVVEAHHHEVATAGQNEVACRFNTMTKKADETQIYKYVVHNVAHAYGKTATFMPKPLVGDNGSGMHCHMSLSKDGINLFAGDKYGGLSEMALYYIGGIIKHARALNAFTNPTTNSYKRLVPGFEAPVMLAYSARNRSASIRIPVVASTKARRIEVRFPDPAANPYLAFAAQLMAGLDGIINKIHPGDAMDKNLYDLPPEEAKEIPTVAGSLEEALNELDKNREFLTRGGVFTNDAIDAYIELLRNDIQRVRMTPHPLEFEMYYSV
notes: Glutamine synthetase (GSI beta type, EC 6.3.1.2) of Providencia vermicola strain CGS6, cloned from genomic DNA; ORF of 1410 base pairs encoding 469 amino acids; Cloned between BamHI and XhoI of pGEX-6P-1; also called PveGS; GS; source: E. coli BL21 (DE3), pGEX-6p-1-PveGS, purified (GST Gene Fusion System, eluted from the GST tag by 3C protease); copies: 12
  stoichiometry N: 12

— paper PMC6199252, “Characterization and improved properties of Glutamine synthetase from Providencia vermicola by site-directed mutagenesis” (Scientific Reports, 2018)
